Patent US20230314420A1 (Genentech, published 2023)

B2: PEG-Filgrastim (other, UniProt P09919-2 31-204, looked up)
chain: TPLGPASSLPQSFLLKCLEQVRKIQGDGAALQEKLCATYKLCHPEELVLLGHSLGIPWAPLSSCPSQALQLAGCLSQLHSGLFLYQGLLQALEGISPELGPTLDTLQLDVADFATTIWQQMEELGMAPALQPTQGAMPAFASAFQRRAGGVLVASHLQSFLEVSYRVLRHLAQP
modifications: pegylated; site not stated
notes: Specificity control
B3: Filgrastim (other, UniProt P09919-2 31-204, looked up)
chain: TPLGPASSLPQSFLLKCLEQVRKIQGDGAALQEKLCATYKLCHPEELVLLGHSLGIPWAPLSSCPSQALQLAGCLSQLHSGLFLYQGLLQALEGISPELGPTLDTLQLDVADFATTIWQQMEELGMAPALQPTQGAMPAFASAFQRRAGGVLVASHLQSFLEVSYRVLRHLAQP
notes: Specificity control
B4: Trastuzumab coat reagent: recombinant HER2 extracellular domains I, III, IV fused to a murine Fc; domain II is replaced by structurally related domain II of … (Fc fusion)
chain: KYALADASLKMADPNRFRGKDLPVLDQLLEAASTQVCTGTDMKLRLPASPETHLDMLRHLYQGCQVVQGNLELTYLPTNASLSFLQDIQEVQGYVLIAHNQVRQVPLQRLRIVRGTQLFEDNYALAVLDNGDPLNNTTPVTGASPGGLRELQLRSLTEILKGGVLIQRNPQLCYQDTILWKDIFHKNNQLALTLIDTNRSRACHPCSPMCKGSRCWGESSEDCQKLTKIICAQQCSGRCRGKSPSDCCHNQCAAGCTGPRESDCLVCRKFRDEATCKDTCPPLMLYNPTTYQMDVNPEGKYSFGATCVKKCPRNYVVTDHGSCVRACGADSYEMEEDGVRKCKKCEGPCRKVCYGLGMEHLREVRAVTSANIQEFAGCKKIFGSLAFLPESFDGDPASNTAPLQPEQLQVFETLEEITGYLYISAWPDSLPDLSVFQNLQVIRGRILHNGAYSLTLQGLGISWLGLRSLRELGSGLALIHHNTHLCFVHTVPWDQLFRNPHQALLHTANRPEDECVGEGLACHQLCARGHCWGPGPTQCVNCSQFLRGQECVEECRVLQGLPREYVNARHCLPCHPECQPQNGSVTCFGPEADQCVACAHYKDPPFCVARCPSGVKPDLSYMPIWKFPDEEGACQPCPINCTHSCVDLDDKGCPAEQRRAQVTDKKIEPRGPTIKPCPPCKCPAPNLLGGPSVFIFPPKIKDVLMISLSPIVTCVVVDVSEDDPDVQISWFVNNVEVHTAQTQTHREDYNSTLRVVSALPIQHQDWMSGKEFKCKVNNKDLPAPIERTISKPKGSVRAPQVYVLPPPEEEMTKKQVTLTCMVTDFMPEDIYVEWTNNGKTELNYKNTEPVLDSDGSYFMYSKLRVEKKNWVERNSYSCSVVHEGLHNHHTTKSFSRTPGK
notes: also called T-HER2 variant; capture reagent of the trastuzumab ELISA
B5: Vorhyaluronidase Alfa (recombinant human hyaluronidase rHuPH20) (enzyme, UniProt P38567 36-482, looked up)
chain: LNFRAPPVIPNVPFLWAWNAPSEFCLGKFDEPLDMSLFSFIGSPRINATGQGVTIFYVDRLGYYPYIDSITGVTVNGGIPQKISLQDHLDKAKKDITFYMPVDNLGMAVIDWEEWRPTWARNWKPKDVYKNRSIELVQQQNVQLSLTEATEKAKQEFEKAGKDFLVETIKLGKLLRPNHLWGYYLFPDCYNHHYKKPGYNGSCFNVEIKRNDDLSWLWNESTALYPSIYLNTQQSPVAATLYVRNRVREAIRVSKIPDAKSPLPVFAYTRIVFTDQVLKFLSQDELVYTFGETVALGASGIVIWGTLSIMRSMKSCLLLDNYMETILNPYIINVTLAAKMCSQVLCQEQGVCIRKNWNSSDYLHLNPDNFAIQLEKGGKFTVRGKPTLEDLEQFSEKFYCSCYSTLSCKEKADVKDTDAVDVCIADGVCIDAFLKPPMETEEPQIFY
notes: Also the only protein in the two rHuPH20-containing formulation buffers tested as samples; also called rHuPH20-Containing FDC LD Formulation Buffer; rHuPH20-Containing FDC MD Formulation Buffer
B6: Pertuzumab coat reagent: recombinant HER2 extracellular domains I, II, III fused to a murine Fc; domain IV (containing the trastuzumab epitope) is depleted (Fc fusion)
chain: KYALADASLKMADPNRFRGKDLPVLDQLLESTQVCTGTDMKLRLPASPETHLDMLRHLYQGCQVVQGNLELTYLPTNASLSFLQDIQEVQGYVLIAHNQVRQVPLQRLRIVRGTQLFEDNYALAVLDNGDPLNNTTPVTGASPGGLRELQLRSLTEILKGGVLIQRNPQLCYQDTILWKDIFHKNNQLALTLIDTNRSRACHPCSPMCKGSRCWGESSEDCQSLTRTVCAGGCARCKGPLPTDCCHEQCAAGCTGPKHSDCLACLHFNHSGICELHCPALVTYNTDTFESMPNPEGRYTFGASCVTACPYNYLSTDVGSCTLVCPLHNQEVTAEDGTQRCEKCSKPCARVCYGLGMEHLREVRAVTSANIQEFAGCKKIFGSLAFLPESFDGDPASNTAPLQPEQLQVFETLEEITGYLYISAWPDSLPDLSVFQNLQVIRGRILHNGAYSLTLQGLGISWLGLRSLRELGSGLALIHHNTHLCFVHTVPWDQLFRNPHQALLHTANRPEDECVRRAQVTDKKIEPRGPTIKPCPPCKCPAPNLLGGPSVFIFPPKIKDVLMISLSPIVTCVVVDVSEDDPDVQISWFVNNVEVHTAQTQTHREDYNSTLRVVSALPIQHQDWMSGKEFKCKVNNKDLPAPIERTISKPKGSVRAPQVYVLPPPEEEMTKKQVTLTCMVTDFMPEDIYVEWTNNGKTELNYKNTEPVLDSDGSYFMYSKLRVEKKNWVERNSYSCSVVHEGLHNHHTTKSFSRTPGK
notes: also called P-HER2 variant; capture reagent of the pertuzumab ELISA

Tests used:
[1] = target: B4; assay: trastuzumab ELISA specificity test; sample Pertuzumab IV
[2] = target: B6; assay: pertuzumab ELISA specificity test, highest assay concentration, duplicate, OD(405 nm)-OD(490 nm)
[3] = target: B4; assay: trastuzumab ELISA specificity test, highest assay concentration, duplicate, OD(405 nm)-OD(490 nm)
[4] = target: B5; assay: trastuzumab ELISA specificity test; sample rHuPH20-Containing FDC LD Formulation Buffer
[5] = target: B2; assay: trastuzumab ELISA specificity test
[6] = target: B3; assay: trastuzumab ELISA specificity test
[7] = target: B2; assay: pertuzumab ELISA specificity test
[8] = target: B3; assay: pertuzumab ELISA specificity test
[9] = target: B5; assay: pertuzumab ELISA specificity test; sample Vorhyaluronidase Alfa

B1: Pertuzumab (antibody, human IgG1, kappa, V domains shown)
VH: EVQLVESGGGLVQPGGSLRLSCAASGFTFTDYTMDWVRQAPGKGLEWVADVNPNSGGSIYNQRFKGRFTLSVDRSKNTLYLQMNSLRAEDTAVYYCARNLGPSFYFDYWGQGTLVTVSS
VL: DIQMTQSPSSLSASVGDRVTITCKASQDVSIGVAWYQQKPGKAPKLLIYSASYRYTGVPSRFSGSGSGTDFTLTISSLQPEDFATYYCQQYYIYPYTFGQGTKVEIKR
notes: also called rhuMAb 2C4; Pertuzumab IV
[1]
  binding result: no binding

## B2
[2]
  OD Mean of Replicates: 0.07 OD
[3]
  OD Mean of Replicates: 0.03 OD

## B3
[2]
  OD Mean of Replicates: 0.08 OD
[3]
  OD Mean of Replicates: 0.04 OD

## B4
[4]
  binding result: no binding
[5]
  binding result: no binding
[6]
  binding result: no binding

## B5
[2]
  OD Mean of Replicates: 0.07 OD
[3]
  OD Mean of Replicates: 0.03 OD

## B6
[7]
  binding result: no binding
[8]
  binding result: no binding
[9]
  binding result: no binding
